B1: EMD (parent)
chain: YQSKGYNDDYYEESYFTTRTYGEP

The text below walks through data of the supplement of paper PMC10567573.
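Also: lentivirally expressed fusions sorted by FACS into six bins by GFP to DsRed ratio, PSI derived from sequencing read proportions per bin multiplied by bin number.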

In the series the parent is B1. Kind of series: protein stability index of a GFP-peptide fusion (GPS, HEK-293T) (PSI 1-6); higher = more stable. The note with it: c terminus: a fixed tail appended.
Turning to YQSKGYNDQYYEESYFTTRTYGEP [D9Q], the protein stability index was 1.93.
On to YQSKGYNDKYYEESYFTTRTYGEP [D9K], for which the protein stability index is 1.52.
For YQSKGYNDWYYEESYFTTRTYGEP [D9W] the value was 2.68; for YQSKGYNDIYYEESYFTTRTYGEP [D9I], 1.57.
For YQSKGYNDHYYEESYFTTRTYGEP [D9H], the protein stability index is 1.89.
In the case of YQSKGYNDVYYEESYFTTRTYGEP [D9V], the protein stability index was 1.85.
YQSKGYNDLYYEESYFTTRTYGEP [D9L]: the protein stability index is 2.01.
YQSKGYNDNYYEESYFTTRTYGEP [D9N]: the protein stability index stood at 1.74.
For YQSKGYNDMYYEESYFTTRTYGEP [D9M] the value was 1.96.
As to YQSKGYNDEYYEESYFTTRTYGEP [D9E], the protein stability index came out at 2.06.
Take YQSKGYNDAYYEESYFTTRTYGEP [D9A]: the protein stability index came out at 1.44.
To YQSKGYNDPYYEESYFTTRTYGEP [D9P] belongs 1.71; to YQSKGYNDFYYEESYFTTRTYGEP [D9F], 2.44.
For YQSKGYNDCYYEESYFTTRTYGEP [D9C] the value was 1.18; for YQSKGYNDGYYEESYFTTRTYGEP [D9G], 2.7; for YQSKGYNDYYYEESYFTTRTYGEP [D9Y], 1.79.
As to YQSKGYNDTYYEESYFTTRTYGEP [D9T], the protein stability index is 1.79.
For YQSKGYNDRYYEESYFTTRTYGEP [D9R] the value was 1.96.
In the case of YQSKGYNDSYYEESYFTTRTYGEP [D9S], the protein stability index was found to be 1.57.
For the variant YQSKGYNDDAYEESYFTTRTYGEP [Y10A], the protein stability index stood at 2.2.
On to YQSKGYHDDYYEESYFTTRTYGEP [N7H], for which the protein stability index worked out at 2.18.
With YQSKGYLDDYYEESYFTTRTYGEP [N7L], the protein stability index is 1.71.
YQSKGYVDDYYEESYFTTRTYGEP [N7V]: the protein stability index was 2.13.
Turning to YQSKGYDDDYYEESYFTTRTYGEP [N7D], the protein stability index is 2.62.
Regarding YQSKGYMDDYYEESYFTTRTYGEP [N7M], the protein stability index stood at 1.67.
To YQSKGYPDDYYEESYFTTRTYGEP [N7P] belongs 2.17; to YQSKGYYDDYYEESYFTTRTYGEP [N7Y], 1.88.
Take YQSKGYTDDYYEESYFTTRTYGEP [N7T]: the protein stability index came out at 2.14.
Turning to YQSKGYWDDYYEESYFTTRTYGEP [N7W], the protein stability index came out at 3.23.
On to YQSKGYQDDYYEESYFTTRTYGEP [N7Q], for which the protein stability index came out at 2.14.
For YQSKGYFDDYYEESYFTTRTYGEP [N7F] the value was 3.55; for YQSKGYADDYYEESYFTTRTYGEP [N7A], 2.25.
For the variant YQSKGYIDDYYEESYFTTRTYGEP [N7I], the protein stability index amounted to 1.76.
YQSKGYEDDYYEESYFTTRTYGEP [N7E]: the protein stability index is 2.87.
For YQSKGYSDDYYEESYFTTRTYGEP [N7S] the value was 2.47; for YQSKGYRDDYYEESYFTTRTYGEP [N7R], 1.75; for YQSKGYKDDYYEESYFTTRTYGEP [N7K], 1.94.
To YQSKGYGDDYYEESYFTTRTYGEP [N7G] belongs 2.13; to YQSKGYCDDYYEESYFTTRTYGEP [N7C], 2.05; to YQSKGVNDDYYEESYFTTRTYGEP [Y6V], 3.31.
On to YQSKGRNDDYYEESYFTTRTYGEP [Y6R], for which the protein stability index is 2.56.
To YQSKGFNDDYYEESYFTTRTYGEP [Y6F] belongs 2.4; to YQSKGQNDDYYEESYFTTRTYGEP [Y6Q], 2.93.
YQSKGWNDDYYEESYFTTRTYGEP [Y6W]: the protein stability index worked out at 1.48.
Turning to YQSKGPNDDYYEESYFTTRTYGEP [Y6P], the protein stability index was determined as 3.3.
To YQSKGCNDDYYEESYFTTRTYGEP [Y6C] belongs 2.65; to YQSKGMNDDYYEESYFTTRTYGEP [Y6M], 2.85.
YQSKGNNDDYYEESYFTTRTYGEP [Y6N]: the protein stability index worked out at 3.16.
Regarding YQSKGTNDDYYEESYFTTRTYGEP [Y6T], the protein stability index turned out to be 3.34.
To YQSKGANDDYYEESYFTTRTYGEP [Y6A] belongs 3.26; to YQSKGSNDDYYEESYFTTRTYGEP [Y6S], 3.77; to YQSKGHNDDYYEESYFTTRTYGEP [Y6H], 2.82.
To YQSKGLNDDYYEESYFTTRTYGEP [Y6L] belongs 2.24; to YQSKGDNDDYYEESYFTTRTYGEP [Y6D], 3.68; to YQSKGINDDYYEESYFTTRTYGEP [Y6I], 2.83.
For the variant YQSKGENDDYYEESYFTTRTYGEP [Y6E], the protein stability index is 3.76.
For YQSKGGNDDYYEESYFTTRTYGEP [Y6G] the value was 3.01.
For YQSKGKNDDYYEESYFTTRTYGEP [Y6K] the value was 3.05; for YQSKSYNDDYYEESYFTTRTYGEP [G5S], 2.9; for YQSKHYNDDYYEESYFTTRTYGEP [G5H], 1.89.
Regarding YQSKNYNDDYYEESYFTTRTYGEP [G5N], the protein stability index was 2.33.
Consider YQSKWYNDDYYEESYFTTRTYGEP [G5W], for which the protein stability index came out at 2.92.
As for YQSKLYNDDYYEESYFTTRTYGEP [G5L], the protein stability index is 1.82.
In the case of YQSKKYNDDYYEESYFTTRTYGEP [G5K], the protein stability index turned out to be 2.22.
To YQSKFYNDDYYEESYFTTRTYGEP [G5F] belongs 2.33; to YQSKEYNDDYYEESYFTTRTYGEP [G5E], 3.1; to YQSKRYNDDYYEESYFTTRTYGEP [G5R], 1.97.
On to YQSKMYNDDYYEESYFTTRTYGEP [G5M], for which the protein stability index amounted to 1.74.
To YQSKIYNDDYYEESYFTTRTYGEP [G5I] belongs 2.18; to YQSKPYNDDYYEESYFTTRTYGEP [G5P], 2.1.
To YQSKYYNDDYYEESYFTTRTYGEP [G5Y] belongs 1.89.
Take YQSKVYNDDYYEESYFTTRTYGEP [G5V]: the protein stability index is 2.06.
To YQSKTYNDDYYEESYFTTRTYGEP [G5T] belongs 2.52; to YQSKQYNDDYYEESYFTTRTYGEP [G5Q], 2.48.
Regarding YQSKDYNDDYYEESYFTTRTYGEP [G5D], the protein stability index was determined as 3.08.
For YQSKGYNVDYYEESYFTTRTYGEP [D8V] the value was 2.47; for YQSKGYNYDYYEESYFTTRTYGEP [D8Y], 1.72.
On to YQSKGYNRDYYEESYFTTRTYGEP [D8R], for which the protein stability index came to 1.8.
For the variant YQSKGYNSDYYEESYFTTRTYGEP [D8S], the protein stability index was determined as 1.92.
On to YQSKGYNEDYYEESYFTTRTYGEP [D8E], for which the protein stability index stood at 2.13.
To YQSKGYNIDYYEESYFTTRTYGEP [D8I] belongs 2.05; to YQSKGYNTDYYEESYFTTRTYGEP [D8T], 2.09; to YQSKGYNWDYYEESYFTTRTYGEP [D8W], 2.85.
For YQSKGYNADYYEESYFTTRTYGEP [D8A], the protein stability index is 1.5.
Take YQSKGYNCDYYEESYFTTRTYGEP [D8C]: the protein stability index amounted to 2.62.
For YQSKGYNMDYYEESYFTTRTYGEP [D8M] the value was 3.87; for YQSKGYNLDYYEESYFTTRTYGEP [D8L], 2.37.
Take YQSKGYNKDYYEESYFTTRTYGEP [D8K]: the protein stability index is 1.91.
For YQSKGYNQDYYEESYFTTRTYGEP [D8Q] the value was 1.67; for YQSKGYNPDYYEESYFTTRTYGEP [D8P], 2.36.
To YQSKGYNNDYYEESYFTTRTYGEP [D8N] belongs 1.82.
YQSKGYNGDYYEESYFTTRTYGEP [D8G]: the protein stability index came out at 1.65.
Regarding YQSKGYNHDYYEESYFTTRTYGEP [D8H], the protein stability index is 1.96.
To YQSKGYNFDYYEESYFTTRTYGEP [D8F] belongs 2.13.
